The experiment concerns the target 人IFNAR1 on cells (HEK Blue IFNα/β cells, Daudi cells, human whole blood) (human) (UniProt P17181). As to the kind of experiment: cell-based or functional assay.

These results are taken from patent CN113521276A.

人IFNAR1 on cells (HEK Blue IFNα/β cells, Daudi cells, human whole blood) (human), sequence (P17181 28-557): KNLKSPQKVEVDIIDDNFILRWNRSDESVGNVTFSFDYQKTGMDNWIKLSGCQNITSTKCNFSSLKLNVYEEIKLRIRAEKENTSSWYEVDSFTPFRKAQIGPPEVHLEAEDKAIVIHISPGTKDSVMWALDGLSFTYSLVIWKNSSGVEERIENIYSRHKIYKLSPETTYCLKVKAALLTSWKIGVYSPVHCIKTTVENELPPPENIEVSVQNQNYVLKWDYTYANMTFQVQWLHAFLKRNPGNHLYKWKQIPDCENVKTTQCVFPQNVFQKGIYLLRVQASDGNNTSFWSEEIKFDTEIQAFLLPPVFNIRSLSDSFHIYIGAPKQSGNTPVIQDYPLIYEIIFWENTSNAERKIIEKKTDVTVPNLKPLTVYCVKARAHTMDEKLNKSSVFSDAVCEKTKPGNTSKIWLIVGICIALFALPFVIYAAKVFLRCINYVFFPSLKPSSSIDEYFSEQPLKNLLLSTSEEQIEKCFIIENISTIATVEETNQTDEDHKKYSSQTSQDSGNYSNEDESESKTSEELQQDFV

On to Anifrolumab (antibody), for which the 抑制干扰素诱导的Daudi细胞增殖活性 (0.8ng/ml IFNα.2b, CellTiter-Glo) is 31.7 ng/mL; the 抑制干扰素诱导的HEK Blue IFNα/β细胞中STAT1/2磷酸化活性 (0.2ng/ml IFNα.2b, QUANTI-Blue OD630nm) was determined as 4.43 ng/mL; the 抑制干扰素诱导的全血释放CXCL10/IP10活性 (8ng/ml IFNα.2b, 40ng/ml TNF-α, sandwich ELISA) came to 562 ng/mL.
